Results taken from patent US9820934B2, “Acid containing lipid formulations” (CAMURUS AB, priority 2007, dated 2017).

Assay: Dissolution of GLP-1 in lipid formulation containing P80 and MeSulf (visual: homogenous, transparent)
Format: physicochemical
Settings: SPC/GDO/P80/EtOH/PG/MeSulf=41.0/41.0/5.0/3.0/10.0/0.5 wt %; nominal loads 3, 4, 5 and 6 wt % GLP-1(0); room temperature, 1-3 days
From the text: The lipid composition was the following: SPC/GDO/P80/EtOH/PG/MeSulf=41.0/41.0/5.0/3.0/10.0/0.5 wt %.

Substance: GLP-1(7-36)amide, acetate salt [GLP-1(Ac)]
- Dissolution of GLP-1 in the lipid formulation: complete dissolution
